Ends that are not written are not given here.
What was measured:
NT-biotin hepcidin-25 [1] = target: T1, NT-biotin hepcidin-25 (human, NT-biotin (biotin at the N-terminus)); assay: SPR, Biacore 3000, biotin peptide on neutravidin CM5 chip, MAb 583 injected at 24 µg/ml, 25 C; hepcidin-25 biotinylated at the N-terminus (NT-biotin) on the chip; MAb 583 at 24 µg/ml
T1 construct: also called NT-biotin hepcidin-25 tracer; NT-Bio Tracer
T1 peptide: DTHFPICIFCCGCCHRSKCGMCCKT
Experimental: (§1) Biotinylated hepcidin peptides (NT-biotin-hepcidin-25, K18-biotin-hepcidin-25 and K24-biotin-hepcidin-25) were immobilized in flow cells 2-4 (one peptide species per flow cell) by injecting individual peptides at a concentration of 200 μg/ml at a flow rate of 5 μl/min, for 20 min.
(§2) After 3 minutes, injection was stopped and dissociation was followed for 6 min. Regeneration was performed by injecting 10 mM glycine HCl, pH 1.5 at a flow rate of 10 μl/min for 1 min.

[2] = target: T2, Human hepcidin peptide (hepcidin-25) (human); assay: cell-based or functional assay
T2 peptide: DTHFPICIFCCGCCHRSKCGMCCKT

[3] = target: T2, Human hepcidin peptide (hepcidin-25); assay: cell-based or functional assay
K18-biotin hepcidin-25 [4] = target: T3, K18-biotin hepcidin-25 (human, K18-biotin (biotin on Lys 18)); assay: SPR (Biacore 3000, CM5 chip, 25 °C): biotinylated peptide captured on immobilised neutravidin, MAb 583 injected at 5 µg/ml (33.5 nM per the table)
T3 construct: also called K18-biotin hepcidin-25 tracer
T3 peptide: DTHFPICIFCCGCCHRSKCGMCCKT

NT-biotin hepcidin-25 [5] = target: T1, NT-biotin hepcidin-25; assay: as above
K18-biotin hepcidin-25 [6] = target: T3, K18-biotin hepcidin-25; assay: SPR, Biacore 3000, biotin peptide on neutravidin CM5 chip, MAb 583 injected at 24 µg/ml, 25 C; hepcidin-25 biotinylated at K18 (K18-biotin) on the chip; MAb 583 at 24 µg/ml
Experimental: as §1, §2

[7] = target: T2, Human hepcidin peptide (hepcidin-25); assay: antibody titering ELISA, hepcidin 100 ng/well on plate, HRP-goat anti-mouse IgG; antibody 50 ng/well
K18-biotin hepcidin-25 [8] = target: T3, K18-biotin hepcidin-25; assay: SPR, Biacore 3000, biotin peptide on neutravidin CM5 chip, MAb 583 injected at 24 µg/ml, 25 C
Experimental: as §1, §2

K24-biotin hepcidin-25 [9] = target: T4, K24-biotin hepcidin-25 (human, K24-biotin (biotin on Lys 24)); assay: as above
T4 construct: also called K24-biotin hepcidin-25 tracer
T4 peptide: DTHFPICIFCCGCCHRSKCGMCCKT
Experimental: as §1, §2

NT-biotin hepcidin-25 [10] = target: T1, NT-biotin hepcidin-25; assay: as above
Experimental: as §1, §2

[11] = target: T2, Human hepcidin peptide (hepcidin-25); assay: antibody titering ELISA, hepcidin 100 ng/well on plate, HRP-goat anti-mouse IgG; antibody 100 ng/well
[12] = target: T2, Human hepcidin peptide (hepcidin-25); assay: antibody titering ELISA, hepcidin 100 ng/well on plate, HRP-goat anti-mouse IgG; antibody 25 ng/well
[13] = target: T2, Human hepcidin peptide (hepcidin-25); assay: antibody titering ELISA, hepcidin 100 ng/well on plate, HRP-goat anti-mouse IgG; antibody 12.5 ng/well
K18-biotin hepcidin-25 [14] = target: T3, K18-biotin hepcidin-25; assay: SPR, Biacore, biotin peptide on neutravidin chip, MAb 583 at 5 µg/ml
NT-biotin hepcidin-25 [15] = target: T1, NT-biotin hepcidin-25; assay: as above
K18-biotin hepcidin-25 [16] = target: T3, K18-biotin hepcidin-25; assay: SPR (Biacore 3000, CM5 chip, 25 °C): biotinylated peptide captured on immobilised neutravidin, MAb 583 injected at 5 µg/ml (33.5 nM per the table); column head 'Ka (1/Ms)'
NT-biotin hepcidin-25 [17] = target: T1, NT-biotin hepcidin-25; assay: as above
Mouse hepcidin-1 peptide = target: T5, Mouse hepcidin-1 peptide (mouse); assay: competition ELISA on MAb 583 coated plate, NT-biotin hepcidin-25 tracer
T5 construct: also called mouse hepcidin-25; murine hepcidin-1
T5 peptide: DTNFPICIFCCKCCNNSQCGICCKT
Text: (§3) Competition was detected by streptavidin-HRP with the substrate tetramethylbenzidine; the color reaction was stopped with 0.5 N H₂SO₄ and the optical density of the solution read at 450 nm wavelength.
(§4) Binding of biotinylated hepcidin-25 analogs and detection of bound NT-biotin hepcidin-25 was used to detect relative degree of binding of each of the hepcidin peptides relative to hepcidin-25 (data not shown).

[18] = target: T6, Human hepcidin 10-25 peptide (human, also: oxidized peptide); assay: as above
T6 construct: also called hep 10-25; Hep 10-25
T6 peptide: CCGCCHRSKCGMCCKT
Text: as §3, §4

K18-biotin hepcidin-25 [19] = target: T3, K18-biotin hepcidin-25; assay: SPR (Biacore 3000, CM5 chip, 25 °C): biotinylated peptide captured on immobilised neutravidin, MAb 583 injected at 5 µg/ml (33.5 nM per the table); column head 'Kd (1/s)'
NT-biotin hepcidin-25 [20] = target: T1, NT-biotin hepcidin-25; assay: as above
K24-biotin hepcidin-25 [21] = target: T4, K24-biotin hepcidin-25; assay: SPR, Biacore 3000, biotin peptide on neutravidin CM5 chip, MAb 583 injected at 24 µg/ml, 25 C; hepcidin-25 biotinylated at K24 (K24-biotin) on the chip; MAb 583 at 24 µg/ml
Experimental: as §1, §2

B1: MAb 583 (antibody, V domains shown)
VH: QIQLVQSGPELKKPGETVKISCKASGYTFTNYGMNWVKQAPGKGLKWMGWINTYTGEPTYADDFKGRFAFSLETSASTAYLQINNLKNEDTATYFCTTYATSWYWGQG
VL: DIVLTQSPASLAVSLGQRATISCRASESVDSYGNSFMHWYQQKPGQPPKLLIYRASNLESGIPARFSGSGSRTDFTLTINPVEADDVATYYCQQSNEDLTFG
notes: Murine monoclonal, Protein A purified
- Kd (NT-biotin hepcidin-25 [1]): 51.6 pM
- IC50 (read off the curve); normalized ferritin (% of uninduced sample) of Fpn-GFP HEK cells, 37 nM hepcidin-25 present [2]: ~2000 pM
- EC50 (read off the curve); GFP fluorescence (% of untreated sample) of Fpn-GFP HEK cells, 37 nM hepcidin-25 present [3]: ~2000 pM
- Ka (K18-biotin hepcidin-25 [4]): 1.34e+11 M⁻¹
- Kd (K18-biotin hepcidin-25 [4]): 7.45 pM
- Ka (NT-biotin hepcidin-25 [5]): 5.47e+10 M⁻¹
- Kd (NT-biotin hepcidin-25 [5]): 18.3 pM
- Kd (K18-biotin hepcidin-25 [6]): 878 pM
- OD 450 nm [7]: 4 OD450
- Ka (K18-biotin hepcidin-25 [8]): 1.14e+09 M⁻¹
- Req (K18-biotin hepcidin-25 [8]): 126 RU
- kobs (K18-biotin hepcidin-25 [8]): 0.0102 s⁻¹
- koff (K18-biotin hepcidin-25 [8]): 5.59e-05 s⁻¹
- kon (K18-biotin hepcidin-25 [8]): 63700 M⁻¹ s⁻¹
- Ka (K24-biotin hepcidin-25 [9]): 1.8e+08 M⁻¹
- Req (K24-biotin hepcidin-25 [9]): 63.1 RU
- kobs (K24-biotin hepcidin-25 [9]): 0.0086 s⁻¹
- koff (K24-biotin hepcidin-25 [9]): 0.000288 s⁻¹
- kon (K24-biotin hepcidin-25 [9]): 52000 M⁻¹ s⁻¹
- Ka (NT-biotin hepcidin-25 [10]): 1.94e+10 M⁻¹
- Req (NT-biotin hepcidin-25 [10]): 78.8 RU
- kobs (NT-biotin hepcidin-25 [10]): 0.00977 s⁻¹
- koff (NT-biotin hepcidin-25 [10]): 3.15e-06 s⁻¹
- kon (NT-biotin hepcidin-25 [10]): 61100 M⁻¹ s⁻¹
- OD 450 nm [11]: 4 OD450
- OD 450 nm [12]: 4 OD450
- OD 450 nm [13]: 4 OD450
- Kd (K18-biotin hepcidin-25 [14]): ~7.5 pM
- Kd (NT-biotin hepcidin-25 [15]): ~18 pM
- kon (K18-biotin hepcidin-25 [16]): 1.88e+06 M⁻¹ s⁻¹
- kon (NT-biotin hepcidin-25 [17]): 1.33e+06 M⁻¹ s⁻¹
- binding result (Mouse hepcidin-1 peptide): no binding
- binding result [18]: no binding (tested: up to 2000 ng/ml)
- koff (K18-biotin hepcidin-25 [19]): 1.4e-05 s⁻¹
- koff (NT-biotin hepcidin-25 [20]): 2.43e-05 s⁻¹
- Kd (K24-biotin hepcidin-25 [21]): 5540 pM
